B1: VAMP4 (parent)
chain: FLRGPSGPRFGPRNDKIKHVQNQV

Variants of: B1
Experiment: protein stability index of a GFP-peptide fusion (GPS, HEK-293T) (PSI 1-6); higher = more stable
Settings: c terminus: a fixed tail appended
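Further: lentivirally expressed fusions sorted by FACS into six bins by GFP to DsRed ratio, PSI derived from sequencing read proportions per bin multiplied by bin number.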

Variant	protein stability index
FLRGPSGPRFGPRRDKIKHVQNQV	2.68
FLRGPSGPRFGPRSDKIKHVQNQV	2.67
FLRGPSGPRFGPRTDKIKHVQNQV	2.7
FLRGPSGPRFGPRVDKIKHVQNQV	2.73
FLRGPSGPRFGPRWDKIKHVQNQV	2.25
FLRGPSGPRFGPRYDKIKHVQNQV	2.04
FLRGPSGPRFGPRNAKIKHVQNQV	2.6
FLRGPSGPRFGPRNCKIKHVQNQV	2.5
FLRGPSGPRFGPRNEKIKHVQNQV	3
FLRGPSGPRFGPRNFKIKHVQNQV	2.01
FLRGPSGPRFGPRNGKIKHVQNQV	2.08
FLRGPSGPRFGPRNHKIKHVQNQV	3.02
FLRGPSGPRFGPRNIKIKHVQNQV	3.2
FLRGPSGPRFGPRNKKIKHVQNQV	2.23
FLRGPSGPRFGPRNLKIKHVQNQV	2.17
FLRGPSGPRFGPRNMKIKHVQNQV	2.05
FLRGPSGPRFGPRNNKIKHVQNQV	2.7
FLRGPSGPRFGPRNPKIKHVQNQV	3.23
FLRGPSGPRFGPRNQKIKHVQNQV	2.5
FLRGPSGPRFGPRNRKIKHVQNQV	2.69
FLRGPSGPRFGPRNSKIKHVQNQV	2.19
FLRGPSGPRFGPRNTKIKHVQNQV	2.26
FLRGPSGPRFGPRNVKIKHVQNQV	2.85
FLRGPSGPRFGPRNWKIKHVQNQV	1.39

Variant	protein stability index
FLRGPSGPRFGPRNYKIKHVQNQV	2.1
FLRGPSGPRFGPRNDAIKHVQNQV	3
FLRGPSGPRFGPRNDCIKHVQNQV	2.18
FLRGPSGPRFGPRNDDIKHVQNQV	3.13
FLRGPSGPRFGPRNDEIKHVQNQV	3.18
FLRGPSGPRFGPRNDFIKHVQNQV	2.25
FLRGPSGPRFGPRNDGIKHVQNQV	3.33
FLRGPSGPRFGPRNDHIKHVQNQV	2.48
FLRGPSGPRFGPRNDIIKHVQNQV	2.15
FLRGPSGPRFGPRNDLIKHVQNQV	2.34
FLRGPSGPRFGPRNDMIKHVQNQV	2.42
FLRGPSGPRFGPRNDNIKHVQNQV	3.18
FLRGPSGPRFGPRNDPIKHVQNQV	2.76
FLRGPSGPRFGPRNDQIKHVQNQV	3.11
FLRGPSGPRFGPRNDRIKHVQNQV	2.75
FLRGPSGPRFGPRNDSIKHVQNQV	2.81
FLRGPSGPRFGPRNDTIKHVQNQV	2.74
FLRGPSGPRFGPRNDVIKHVQNQV	2.46
FLRGPSGPRFGPRNDWIKHVQNQV	1.86
FLRGPSGPRFGPRNDYIKHVQNQV	2.28
FLRGPSGPRFGPRNDKAKHVQNQV	2.88
FLRGPSGPRFGPRNDKCKHVQNQV	2.87
FLRGPSGPRFGPRNDKDKHVQNQV	3.57
FLRGPSGPRFGPRNDKEKHVQNQV	4.11

Variant	protein stability index
FLRGPSGPRFGPRNDKFKHVQNQV	2.81
FLRGPSGPRFGPRNDKHKHVQNQV	3.42
FLRGPSGPRFGPRNDKKKHVQNQV	2.81
FLRGPSGPRFGPRNDKLKHVQNQV	2.78
FLRGPSGPRFGPRNDKNKHVQNQV	3.54
FLRGPSGPRFGPRNDKPKHVQNQV	2.84
FLRGPSGPRFGPRNDKQKHVQNQV	2.72
FLRGPSGPRFGPRNDKRKHVQNQV	3
FLRGPSGPRFGPRNDKSKHVQNQV	2.34
FLRGPSGPRFGPRNDKTKHVQNQV	3.16
FLRGPSGPRFGPRNDKVKHVQNQV	2.5
FLRGPSGPRFGPRNDKWKHVQNQV	1.53
FLRGPSGPRFGPRNDKIAHVQNQV	3.24
FLRGPSGPRFGPRNDKICHVQNQV	2.04
FLRGPSGPRFGPRNDKIDHVQNQV	2.74
FLRGPSGPRFGPRNDKIEHVQNQV	3.06
FLRGPSGPRFGPRNDKIGHVQNQV	2.88
FLRGPSGPRFGPRNDKIHHVQNQV	2.73
FLRGPSGPRFGPRNDKIIHVQNQV	2.31
FLRGPSGPRFGPRNDKILHVQNQV	1.93
FLRGPSGPRFGPRNDKIMHVQNQV	2.27
FLRGPSGPRFGPRNDKINHVQNQV	2.83
FLRGPSGPRFGPRNDKIPHVQNQV	3.1
FLRGPSGPRFGPRNDKIQHVQNQV	3.34

Variant	protein stability index
FLRGPSGPRFGPRNDKIRHVQNQV	1.75
FLRGPSGPRFGPRNDKISHVQNQV	3.11
FLRGPSGPRFGPRNDKITHVQNQV	2.47
FLRGPSGPRFGPRNDKIVHVQNQV	2.91
FLRGPSGPRFGPRNDKIWHVQNQV	1.48
FLRGPSGPRFGPRNDKIYHVQNQV	2.15
FLRGPSGPRFGPRNDKIKAVQNQV	2.81
FLRGPSGPRFGPRNDKIKEVQNQV	2.7
FLRGPSGPRFGPRNDKIKFVQNQV	1.8
FLRGPSGPRFGPRNDKIKGVQNQV	2.86
FLRGPSGPRFGPRNDKIKIVQNQV	2.55
FLRGPSGPRFGPRNDKIKKVQNQV	2.35
FLRGPSGPRFGPRNDKIKLVQNQV	2.72
FLRGPSGPRFGPRNDKIKMVQNQV	2.6
FLRGPSGPRFGPRNDKIKQVQNQV	2.42
FLRGPSGPRFGPRNDKIKRVQNQV	2.03
FLRGPSGPRFGPRNDKIKSVQNQV	2.7
FLRGPSGPRFGPRNDKIKTVQNQV	1.54
FLRGPSGPRFGPRNDKIKVVQNQV	2.95
FLRGPSGPRFGPRNDKIKWVQNQV	1.57
FLRGPSGPRFGPRNDKIKYVQNQV	1.93
FLRGPSGPRFGPRNDKIKHAQNQV	2.63
